Experimental data taken from patent publication US20140193915, “COMPOSITIONS AND METHODS FOR CUSTOM SITE-SPECIFIC DNA RECOMBINASES” (Monsanto Technology, LLC, published 2014).

T1: sN-TALER IV-1 (GinH106Y-TALE13) (synthetic)
T1 chain: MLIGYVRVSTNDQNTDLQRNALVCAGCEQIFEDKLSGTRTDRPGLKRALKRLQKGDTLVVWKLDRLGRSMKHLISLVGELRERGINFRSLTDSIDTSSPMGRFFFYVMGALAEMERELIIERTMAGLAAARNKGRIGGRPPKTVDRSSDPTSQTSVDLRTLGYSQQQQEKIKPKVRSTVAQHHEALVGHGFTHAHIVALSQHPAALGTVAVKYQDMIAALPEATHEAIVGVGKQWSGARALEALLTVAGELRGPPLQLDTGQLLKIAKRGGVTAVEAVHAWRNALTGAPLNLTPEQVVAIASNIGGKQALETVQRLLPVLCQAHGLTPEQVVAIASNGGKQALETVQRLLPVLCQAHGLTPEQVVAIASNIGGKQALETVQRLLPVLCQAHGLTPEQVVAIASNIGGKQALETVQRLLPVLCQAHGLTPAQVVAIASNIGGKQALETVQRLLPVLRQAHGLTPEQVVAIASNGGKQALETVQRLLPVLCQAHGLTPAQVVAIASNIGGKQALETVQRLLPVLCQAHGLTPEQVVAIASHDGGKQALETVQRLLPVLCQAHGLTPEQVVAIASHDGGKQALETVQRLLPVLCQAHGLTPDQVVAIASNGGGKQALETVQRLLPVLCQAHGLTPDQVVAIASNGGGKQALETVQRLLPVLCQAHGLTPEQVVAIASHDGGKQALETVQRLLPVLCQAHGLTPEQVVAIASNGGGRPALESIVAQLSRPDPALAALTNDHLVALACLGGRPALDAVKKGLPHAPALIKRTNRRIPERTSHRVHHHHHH

T2: sN-TALER IV-2 (GinH106Y-TALE13) (synthetic)
T2 chain: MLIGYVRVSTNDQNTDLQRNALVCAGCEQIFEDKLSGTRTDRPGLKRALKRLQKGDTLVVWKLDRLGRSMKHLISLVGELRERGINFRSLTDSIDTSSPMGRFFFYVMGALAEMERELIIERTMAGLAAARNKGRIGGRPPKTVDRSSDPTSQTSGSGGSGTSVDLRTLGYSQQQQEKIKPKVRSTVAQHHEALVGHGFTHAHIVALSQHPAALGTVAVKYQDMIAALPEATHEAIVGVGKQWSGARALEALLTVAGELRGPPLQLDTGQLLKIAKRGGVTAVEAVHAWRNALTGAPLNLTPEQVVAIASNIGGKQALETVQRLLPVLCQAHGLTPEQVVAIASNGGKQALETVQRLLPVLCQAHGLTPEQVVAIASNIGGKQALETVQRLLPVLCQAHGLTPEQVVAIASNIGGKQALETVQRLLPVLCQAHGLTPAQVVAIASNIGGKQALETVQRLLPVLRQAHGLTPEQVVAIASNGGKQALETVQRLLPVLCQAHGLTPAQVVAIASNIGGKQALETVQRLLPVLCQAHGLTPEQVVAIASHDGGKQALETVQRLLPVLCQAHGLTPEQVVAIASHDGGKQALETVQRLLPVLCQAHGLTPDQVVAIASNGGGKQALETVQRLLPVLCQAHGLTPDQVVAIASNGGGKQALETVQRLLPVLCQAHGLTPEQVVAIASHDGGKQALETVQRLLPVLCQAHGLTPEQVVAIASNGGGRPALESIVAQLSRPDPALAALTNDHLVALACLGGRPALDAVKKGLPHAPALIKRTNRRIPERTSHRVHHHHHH

T3: pN-TALER IV-1-EE2 (GinL7C7-EE2-TALE13) (synthetic)
T3 chain: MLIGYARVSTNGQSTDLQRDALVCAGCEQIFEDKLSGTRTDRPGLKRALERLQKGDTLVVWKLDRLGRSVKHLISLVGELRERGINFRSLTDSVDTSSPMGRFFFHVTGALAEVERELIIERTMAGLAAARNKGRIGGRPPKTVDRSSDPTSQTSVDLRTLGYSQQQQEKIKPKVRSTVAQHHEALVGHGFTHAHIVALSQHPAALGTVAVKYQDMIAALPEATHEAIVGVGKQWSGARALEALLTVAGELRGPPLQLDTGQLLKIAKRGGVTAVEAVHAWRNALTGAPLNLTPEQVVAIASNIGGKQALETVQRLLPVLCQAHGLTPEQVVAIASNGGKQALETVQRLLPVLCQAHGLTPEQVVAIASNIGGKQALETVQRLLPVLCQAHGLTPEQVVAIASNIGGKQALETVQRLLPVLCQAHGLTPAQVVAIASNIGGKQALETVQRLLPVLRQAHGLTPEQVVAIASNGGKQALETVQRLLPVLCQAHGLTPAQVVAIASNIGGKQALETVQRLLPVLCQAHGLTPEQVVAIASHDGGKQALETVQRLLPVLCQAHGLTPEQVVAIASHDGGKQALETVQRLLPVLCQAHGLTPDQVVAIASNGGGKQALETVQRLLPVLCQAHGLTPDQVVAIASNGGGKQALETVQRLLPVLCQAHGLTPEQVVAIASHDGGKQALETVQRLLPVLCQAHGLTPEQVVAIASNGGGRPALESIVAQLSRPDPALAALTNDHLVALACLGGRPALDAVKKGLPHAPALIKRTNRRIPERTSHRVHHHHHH


Legend:
[1] = biological target: T1, sN-TALER IV-1 (GinH106Y-TALE13); test: cell_activity; E. coli; conditions: tags: 6-His; chain copies: 2 per site, tetramer in synapsis (stated)
Procedure: (§1) To test for recombination, E. coli DH5alpha cells were co-transformed with different combinations of TALER expression construct and TALER reporter construct pairs (Tables 6 and 7). The N-TALER expression and reporter constructs were in an approximate 1:1 mass ratio during the transformation. The co-transformed bacteria were plated on media with chloramphenicol, kanamycin, and X-gal then incubated at 37° C. for 18 to 36 hours. Control samples consisted of transformations using the reporter construct alone. Control transformants were similarly plated. The bacterial transformation protocol was either heat shock or electroporation per standard molecular biology techniques.

[2] = biological target: T2, sN-TALER IV-2 (GinH106Y-TALE13); test: cell_activity; E. coli; conditions: tags: 6-His
Procedure: as §1

[3] = biological target: T3, pN-TALER IV-1-EE2 (GinL7C7-EE2-TALE13); test: cell_activity; E. coli; conditions: tags: 6-His
Procedure: as §1
Two additional N-TALERs, based on N-TALER IV-1, were constructed wherein the GinH106Y recombinase catalytic domain was replaced with either the GinL7C7-EE2 catalytic domain or the GinL7C7-EE3 permissive recombinase catalytic domain. These N-TALERs were labeled pN-TALER IV-1-EE2 (SEQ ID NO:41) and pN-TALER IV-1-EE3 (SEQ ID NO:45), respectively. pN-TALER IV-1-EE2 was tested in combination with seventeen N-TALER reporter constructs and pN-TALER IV-1-EE3 was tested with three reporter constructs (Table 10).

[4] = biological target: T3, pN-TALER IV-1-EE2 (GinL7C7-EE2-TALE13); test: cell_activity; E. coli; conditions: tags: 6-His
Text: To determine how much of the Gin20 sequence is required for recombination when the central sequence is maintained at a permitted length, N-TALER reporters were generated with a 20 bp recombinase central sequence between the TALE binding sites, where either the central 12 bp, or the central 10 bp, or the central 8 bp of the recombinase core sequence were held constant, and the remaining nucleotides were different from the Gin sequence. The N-TALER reporter with 12 bp was designated R45, the N-TALER reporter with 10 bp was designated R46, and the N-TALER reporter with 8 bp was designated R47. A N-TALER reporter with a 10 bp site 1 and a 12 bp site 2 was designated R46B, and a N-TALER reporter with a T and an A flanking the central AT di-nucleotide was designated R48 (see Table 33). The various reporters, including the pSC101 Gin20TALE13+0 were co-transformed with either sN-TALER-IV-1 or pN-TALER-IV-1 and recombination, as determined by colony color, was scored (Table 33). For purposes of comparison, the GinE site that was used in the generation of the GinL7C7-EE2 recombinase domain (Gersbach et al., 2010) was also included.
To confirm that white colonies resulted from recombination, the colonies were analyzed by colony PCR and sequencing of the PCR product. For the reporter that retained 12 bp from the Gin site, 8 of 8 colonies analyzed had the predicted recombination product for both the sN-TALER-IV-1 chimera and the pN-TALER-IV-1chimera (16 colonies total analyzed, 8 each). Likewise, for the reporter that retained 8 bp from the Gin site co-transformed with the pN-TALER-IV-1 chimera, 14 of 14 colonies analyzed had the predicted recombination product.

[5] = biological target: T1, sN-TALER IV-1 (GinH106Y-TALE13); test: cell_activity; E. coli; sequenced; conditions: tags: 6-His; chain copies: 2 per site, tetramer in synapsis (stated)
Procedure: as §1
PCR was used to confirm that the predicted recombination had occurred in colonies which were white or sectored. PCR primers were designed so that a PCR product of approximately 877 bp (depending on the length of the spacers) would be produced from the non-recombined reporter constructs, and a PCR product of approximately 470 bp would be produced from reporter constructs that had undergone N-TALER-mediated recombination. Standard colony PCR was performed on white, blue, and sectored colonies from several plates representing different pairs of N-TALER expression construct and reporter construct co-transformation combinations.
To confirm that the recombination occurred as predicted, several of the PCR products were sequenced. Sequencing results for PCR products generated from white colonies from the sN-TALER IV-1 and Gin18TALE+1; sN-TALER IV-1 and Gin20TALE+0; or sN-TALER IV-1 and Gin20TALE+10 reporter constructs are shown in FIG. 7. No mismatches were detected relative to the predicted recombinase core sequence in any of the PCR products sequenced thereby confirming a base-perfect recombination with N-TALERs (the few single-nucleotide mismatches detected in the sN-TALER IV-1 and Gin20TALE+0 combination were rechecked and consequently dismissed as sequencing error).

Binder | activity [1] [score] | activity [2] [score] | activity [3] [score] | activity [4] [score] | activity [5] [score]
Gin20TALE+1 (dsDNA) DNA 1: AGAAGGTATTTATATTCCAAAACCATGGTTTACAGATATAAATACCTTCT DNA 2: AGAAGGTATTTATATCTGTAAACCATGGTTTTGGAATATAAATACCTTCT | 2 | 1 | 1 | – | –
Gin20TALE+2 (dsDNA) DNA 1: AGAAGGTATTTATATATCCAAAACCATGGTTTACAGTATATAAATACCTTCT DNA 2: AGAAGGTATTTATATACTGTAAACCATGGTTTTGGATATATAAATACCTTCT | 3 | – | 1 | – | –
R47 (8bp) (dsDNA) DNA 1: AGAAGGTATTTATATCTCTGACCATGGTCACACTTATAAATACCTTCT DNA 2: AGAAGGTATTTATAAGTGTGACCATGGTCAGAGATATAAATACCTTCT | – | – | – | 1.5 | –
Gin20TALE+9 (dsDNA) DNA 1: AGAAGGTATTTATATAGGCATTATCCAAAACCATGGTTTACAGGACACGGTATATAAATACCTTCT DNA 2: AGAAGGTATTTATATACCGTGTCCTGTAAACCATGGTTTTGGATAATGCCTATATAAATACCTTCT | 2 | – | 2 | – | –
Gin20TALE+6 (dsDNA) DNA 1: AGAAGGTATTTATATAGTTATCCAAAACCATGGTTTACAGGACGTATATAAATACCTTCT DNA 2: AGAAGGTATTTATATACGTCCTGTAAACCATGGTTTTGGATAACTATATAAATACCTTCT | – | – | 2 | – | –
Gin20TALE+10 (dsDNA) DNA 1: AGAAGGTATTTATATAGGCACTTATCCAAAACCATGGTTTACAGGACCACGGTATATAAATACCTTCT DNA 2: AGAAGGTATTTATATACCGTGGTCCTGTAAACCATGGTTTTGGATAAGTGCCTATATAAATACCTTCT | – | 1 | 1 | – | 1.5
Gin20TALE+3 (dsDNA) DNA 1: AGAAGGTATTTATATAATCCAAAACCATGGTTTACAGGTATATAAATACCTTCT DNA 2: AGAAGGTATTTATATACCTGTAAACCATGGTTTTGGATTATATAAATACCTTCT | 3 | 3 | 1 | – | –
Gin20TALE+7 (dsDNA) DNA 1: AGAAGGTATTTATATAGGTTATCCAAAACCATGGTTTACAGGACGGTATATAAATACCTTCT DNA 2: AGAAGGTATTTATATACCGTCCTGTAAACCATGGTTTTGGATAACCTATATAAATACCTTCT | – | – | 2.5 | – | –
Gin20TALE+4 (dsDNA) DNA 1: AGAAGGTATTTATATATATCCAAAACCATGGTTTACAGGCTATATAAATACCTTCT DNA 2: AGAAGGTATTTATATAGCCTGTAAACCATGGTTTTGGATATATATAAATACCTTCT | – | 4 | 1.5 | – | –
